T1: Human mature IL-1α (human, UniProt P01583 113-271)
T1 sequence: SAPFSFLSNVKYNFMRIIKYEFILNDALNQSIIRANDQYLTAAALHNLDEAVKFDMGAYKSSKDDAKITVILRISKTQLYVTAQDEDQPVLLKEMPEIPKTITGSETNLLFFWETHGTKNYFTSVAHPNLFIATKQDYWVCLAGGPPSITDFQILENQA

T2: Cynomolgus IL-1β (cynomolgus, UniProt P79182 117-268)
T2 sequence (looked up): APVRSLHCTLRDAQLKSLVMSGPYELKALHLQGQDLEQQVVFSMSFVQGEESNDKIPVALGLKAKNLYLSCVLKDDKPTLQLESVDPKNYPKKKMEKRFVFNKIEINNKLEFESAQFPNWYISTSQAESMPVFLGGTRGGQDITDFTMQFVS

T3: Cynomolgus IL-1α (cynomolgus, UniProt P79340 113-271)
T3 sequence (looked up): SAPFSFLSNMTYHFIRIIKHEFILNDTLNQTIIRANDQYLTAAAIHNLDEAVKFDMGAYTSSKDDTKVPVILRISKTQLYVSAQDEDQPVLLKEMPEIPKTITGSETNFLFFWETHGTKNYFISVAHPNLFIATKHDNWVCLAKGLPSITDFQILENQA


Legend:
Test in all cases: cell-based or functional assay
Human mature IL-1α = target: T1, Human mature IL-1α
Cynomolgus IL-1β = target: T2, Cynomolgus IL-1β
Cynomolgus IL-1α = target: T3, Cynomolgus IL-1α
Human mature IL-1β = Human mature IL-1β (human, UniProt P01584 117-269)

Potency (pM), inhibition of IL-1-induced hIL-8 in MRC5 cells (Human mature IL-1α) | Potency (pM), inhibition of IL-1-induced hIL-8 in MRC5 cells (Cynomolgus IL-1β) | Potency (pM), inhibition of IL-1-induced hIL-8 in MRC5 cells (Cynomolgus IL-1α) | Potency (pM), inhibition of IL-1-induced hIL-8 in MRC5 cells (Human mature IL-1β) | Binder
25.8 pM | 0.6 pM | 474 pM | 1.8 pM | E26.35-SS-X3 DVD-Ig (bispecific antibody, human IgG1, kappa, L234A L235A) heavy: not shown light: DIQMTQSPSSLSASVGDRVTITCRASGNIHNYLTWYQQTPGKAPKLLIYNAKTLADGVPSRFSGSGSGTDYTFTISSLQPEDIATYYCQHFWSIPYTFGQGTKLQITRTVAAPDIQMTQSPSSVSASVGDRVTITCRASQGISSWLAWYQQKPGKAPKLLIYEASNLETGVPSRFSGSGSGSDFTLTISSLQPEDFATYYCQQTSSFLLSFGGGTKVEHKRTVAAPSVFIFPPSDEQLKSGTASVVCLLNNFYPREAKVQWKVDNALQSGNSQESVTEQDSKDSTYSLSSTLTLSKADYEKHKVYACEVTHQGLSSPVTKSFNRGEC
8.9 pM |  |  | 1470 pM | X3-LL-E26.13 DVD-Ig (bispecific antibody, human IgG1, kappa, L234A L235A) heavy: not shown light: DIQMTQSPSSVSASVGDRVTITCRASQGISSWLAWYQQKPGKAPKLLIYEASNLETGVPSRFSGSGSGSDFTLTISSLQPEDFATYYCQQTSSFLLSFGGGTKVEHKRTVAAPSVFIFPPDIQMTQSPSSLSASVGDRVTITCRASGNIHNYLTWYQQTPGKAPKLLIYNAKTLADGVPSRFSGSGSGTDYTFTISSLQPEDIATYYCQHFWSIPYTFGQGTKLQITRTVAAPSVFIFPPSDEQLKSGTASVVCLLNNFYPREAKVQWKVDNALQSGNSQESVTEQDSKDSTYSLSSTLTLSKADYEKHKVYACEVTHQGLSSPVTKSFNRGEC

The remaining lines, values behind:

Binder | Potency (pM), inhibition of IL-1-induced hIL-8 in MRC5 cells (Human mature IL-1α) | Potency (pM), inhibition of IL-1-induced hIL-8 in MRC5 cells (Cynomolgus IL-1β) | Potency (pM), inhibition of IL-1-induced hIL-8 in MRC5 cells (Cynomolgus IL-1α) | Potency (pM), inhibition of IL-1-induced hIL-8 in MRC5 cells (Human mature IL-1β)
E26.13-SS-X3 JM DVD-Ig (bispecific antibody, human IgG1, kappa, L234A L235A) heavy: not shown light: DIQMTQSPSSLSASVGDRVTITCRASGNIHNYLTWYQQTPGKAPKLLIYNAKTLADGVPSRFSGSGSGTDYTFTISSLQPEDIATYYCQHFWSIPYTFGQGTKLQITRTVAAPDIQMTQSPSSVSASVGDRVTITCRASQGISSWLAWYQQKPGKAPKLLIYEASNLETGVPSRFSGSGSGSDFTLTISSLQPEDFATYYCQQTSSFLLSFGGGTKVEIKRTVAAPSVFIFPPSDEQLKSGTASVVCLLNNFYPREAKVQWKVDNALQSGNSQESVTEQDSKDSTYSLSSTLTLSKADYEKHKVYACEVTHQGLSSPVTKSFNRGEC | 26.5 pM | 17.6 pM | 1880 pM | 
E26.13-LL-X3 DVD-Ig (bispecific antibody, human IgG1, kappa, L234A L235A) heavy: not shown light: DIQMTQSPSSLSASVGDRVTITCRASGNIHNYLTWYQQTPGKAPKLLIYNAKTLADGVPSRFSGSGSGTDYTFTISSLQPEDIATYYCQHFWSIPYTFGQGTKLQITRTVAAPSVFIFPPDIQMTQSPSSVSASVGDRVTITCRASQGISSWLAWYQQKPGKAPKLLIYEASNLETGVPSRFSGSGSGSDFTLTISSLQPEDFATYYCQQTSSFLLSFGGGTKVEHKRTVAAPSVFIFPPSDEQLKSGTASVVCLLNNFYPREAKVQWKVDNALQSGNSQESVTEQDSKDSTYSLSSTLTLSKADYEKHKVYACEVTHQGLSSPVTKSFNRGEC | 10.2 pM |  | 1050 pM | 
